B1: PD-1 (73-90) (peptide)
peptide: H-DFHMSVVRARRNDSGTYL-NH2
notes: Free peptide (H2N- at the N-terminus); also called free peptide
B2: MVF-HER-2(266-296) (peptide)
peptide: KLLSLIKGVIVHRLEGVEGPSLLHCPALVTYNTDTFESMPNPEGRYTFGASCV
notes: Negative control peptide in SPR
B3: PD-1 (92-110) (peptide)
peptide: H-GAISLAPKAQIKESLRAEL-NH2
notes: as for B1
B4: PD-1 (45-64) (peptide)
peptide: H-KLAAFPEDRSQPGQDCRFR-NH2
notes: Free peptide (H2N- at the N-terminus); also called free peptide; 46-64

biological target: T1, recombinant hPD-L1 ectodomain (human, UniProt Q9NZQ7 19-238); test: SPR (Biacore T200), rhPD-L1 immobilised on CM5 chip, 1 µM peptide injected
T1 construct: extracellular domain; Immobilised on a CM5 chip by amine coupling (2345 RU); also called rhPD-L1; rPD-L1
T1 sequence (Q9NZQ7 19-238): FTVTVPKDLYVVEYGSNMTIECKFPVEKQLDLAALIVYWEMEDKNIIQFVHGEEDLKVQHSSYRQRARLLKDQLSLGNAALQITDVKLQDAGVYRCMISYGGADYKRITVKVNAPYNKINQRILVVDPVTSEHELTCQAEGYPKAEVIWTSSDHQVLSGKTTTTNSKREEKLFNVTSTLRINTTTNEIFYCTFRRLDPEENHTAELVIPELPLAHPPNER

Binder	binding result	SPR response [RU]
B1	binds	–
Ac-KLAAFPEDRSQPGQDCRFR-NH2 (also called acetylated peptide) [AC-PD-1 (45-64)]	binds	–
B2	–	20
Ac-GAISLAPKAQIKESLRAEL-NH2 (also called acetylated peptide) [AC-PD-1 (92-110)]	binds	–
B3	binds	–
B4	binds	–
Ac-DFHMSVVRARRNDSGTYL-NH2 (also called acetylated peptide) [AC-PD-1 (73-90)]	binds	–
